Reference: patent US20210062165A1 (TRUSTEES OF PRINCETON UNIVERSITY, published 2021)

Key:
[1] = molecular target: the molecule itself; experiment: microscopy of self-clustering in yeast (YEZ53), light against dark
Description: Yeast strains were cultured overnight in a 24 well plate covered with foil. SC media was used to avoid the high auto-fluorescence of YPD. The following day, cultures were diluted 1:20 and allowed to grow for 2 hours such that the cells were in exponential phase. Wells of the microscopy plate were coated using 1 mg/mL Concanavalin A (Sigma) dissolved in 20 mM sodium acetate. After washing wells with ddH2O, yeast cultures were transferred and spun down at 1000 rpm for 3 min. All imaging was carried out using a 60X oil immersion objective (NA 1.4) on a Nikon A1 laser scanning confocal microscope. The laser was used at two different wavelengths: 488 nm for activation of Cry2 and 551 nm for visualization of FusionRed. […] Laser settings were 40% intensity for 488 nm and 30% intensity for 561 nm. Exposure times for both wavelengths was 200 ms.

[2] = molecular target: T1, FUS^N-Citrine-PixE fusion protein; experiment: microscopy of co-clustering in yeast strain YEZ555, dark against blue light
T1 construct: Expressed inside S. cerevisiae cells (strains YEZ231, YEZ232, YEZ555); The listing entry is DNA, not protein; also called FUS^NPixE; EZ-L498

B1: FUS^N-FusionRed-Cry2 fusion protein (other)
chain: MASASNDYTQQATQSYGAYPTQPGQGYSQQSSQPYGQQSYSGYSQSTDTSGYGQSSYSSYGQSQNTGYGTQSTPQGYGSTGGYGSSQSSQSSYGQQSSYPGYGQQPAPSSTSGSYGSSSQSSSYGQPQSGSYSQQPSYGGQQQSYGQQQSYNPPQGYGQQNQYNSSSGGGGGGGGGGNYGQDQSSMSSGGGSGGGYGNQDQSGGGGSGGYGQQDRGGGGMVSELIKENMPMKLYMEGTVNNHHFKCTSEGEGKPYEGTQTMRIKVVEGGPLPFAFDILATSFMYGSRTFIKHPPGIPDFFKQSFPEGFTWERVTTYEDGGVLTATQDTSLQDGCLIYNVKVRGVNFPANGPVMQKKTLGWEASTETMYPADGGLEGACDMALKLVGGGHLICNLETTYRSKKPATNLKMPGVYNVDHRLERIKEADDETYVEQHEVAVARYSTGGAGDGGKAATRMKMDKKTIVWFRRDLRIEDNPALAAAAHEGSVFPVFIWCPEEEGQFYPGRASRWWMKQSLAHLSQSLKALGSDLTLIKTHNTISAILDCIRVTGATKVVFNHLYDPVSLVRDHTVKEKLVERGISVQSYNGDLLYEPWEIYCEKGKPFTSFNSYWKKCLDMSIESVMLPPPWRLMPITAAAEAIWACSIEELGLENEAEKPSNALLTRAWSPGWSNADKLLNEFIEKQLIDYAKNSKKVVGNSTSLLSPYLHFGEISVRHVFQCARMKQIIWARDKNSEGEESADLFLRGIGLREYSRYICFNFPFTHEQSLLSHLRFFPWDADVDKFKAWRQGRTGYPLVDAGMRELWATGWMHNRIRVIVSSFAVKFLLLPWKWGMKYFWDTLLDADLECDILGWQYISGSIPDGHELDRLDNPALQGAKYDPEGEYIRQWLPELARLPTEWIHHPWDAPLTVLKASGVELGTNYAKPIVDIDTARELLAKAISRTREAQIMIGAAARDPPVATGSGSGSG
notes: Expressed inside S. cerevisiae cells (strains YEZ53, yNS47); The listing entry is DNA, not protein; also called optoDroplets; optoDroplet
binding result [1]: binds

B2: sFUS-FusionRed-PixD fusion protein (other)
chain: MASNDYTQQATQSYGAYPTQPGQGYSQQSSQPYGQQSYSGYSQSTDTSGYGQSSYSSYGQSQNTGYGTQSTPQGYGSTGGYGSSQSSQSSYGQQGGGMVSELIKENMPMKLYMEGTVNNHHFKCTSEGEGKPYEGTQTMRIKVVEGGPLPFAFDILATSFMYGSRTFIKHPPGIPDFFKQSFPEGFTWERVTTYEDGGVLTATQDTSLQDGCLIYNVKVRGVNFPANGPVMQKKTLGWEASTETMYPADGGLEGACDMALKLVGGGHLICNLETTYRSKKPATNLKMPGVYNVDHRLERIKEADDETYVEQHEVAVARYSTGGAGDGGKAATRMSLYRLIYSSQGIPNLQPQDLKDILESSQRNNPANGITGLLCYSKPAFLQVLEGECEQVNETYHRIVQDERHHSPQIIECMPIRRRNFEVWSMQAITVNDLSTEQVKTLVLKYSGFTTLRPSAMDPEQCLNFLLDIAKIYELSDNFFLDL
notes: Expressed inside S. cerevisiae cells (strain YEZ555). sFUS is the first 93 amino acids of the FUS^N domain; The listing entry is DNA, not protein; also called sFUS-FR-PixD; EZ-L767
binding result [2]: binds
